Test results: the domain aggregation screens of Martell et al. (2025)

assay: soluble fraction after stress (log2 fold change); higher = more stays soluble; pooled small domains, quantitative proteomics; conditions: stress: 75 degC
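Also: 20 min heating vs room temperature control held 20 min.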

Sequence | soluble fraction (log2)
HMWTPLVVAVLIGGTHRFGELRAAVGGITPKVLTETLRSMERDGLVVREQTPGVPPRVDYALTPLGA | -0.493
HMYAGTWISESGQWKYRNDDGSFAKGWFQDLDSRWYYFDANGHMLSDTLTPDGYRLGEDGAWVND | 0.0742
HMYDESVFTGEYHYYYEKLSDDDKLIYRQIYAMMQKRMDGISLNTTDTDNVSRIQQFVLLDNPQF | -2.61
HMYDKKVFRLLFILNQLDSRKKVSTGELAKEFNVSPRTVQRDIVLLNTTGFPIISLEKGYHSFMEGFSLK | -1.19
HMYDPVNEIGRVLKKIRQERSLTLDNVAEITGVSKTMLGQIERGVSVPTISVLWKIAKGLQVSLSTLLNE | -3.24
HMYEGLPVTLIIDGRVIEANLAKANRDMAWLERELANSGVRSHHDVFFATLDSRGQLYYQVKN | -1.04
HMYELDIYPNPAIDKINVLLPSSTTLPVKVEIYDIMGKKVNSLLTTKKAFTIETDQFEKGIYFVKA | 0.331
HMYELREGDVVSVRILSQTGQNSYIASFAGGRFSVTSERAFAPGTVFSASVSLKDGTLVLSPL | -3.6
HMYFEDEELDRFVGTPAGAYTEEDVEEFRDVLLSLDIEEVPSWVRSLQLRGIDFPETLRPELYLL | -3.01
HMYGQEVKVLGLFGDRAFIKVDEKSAVIRIGQSHQNVQLKSISNQKAILLVDNKDIALGLGDSYQSA | -1.69
HMYGVAEFDEKGNVLSIEEKPVQPKSNYAVVGLYFYPNKVVGVASGIKPSARGELEITTVNQTFLRDEELK | 0.204
HMYHNKFADLAGFIAFNEKNEEIFTFGKYKGQNVKEVFQRDIGYYGWLQNADFPLYTKKVFTAIQLRSR | -2.44
HMYHPGFEALREVARQGSFIKAARALGISGPAVSKQIKSLEARLNLVLLHRTTRAVTLTEAGQRLTEILD | -2.14
HMYIDNVTIYDVGFNERIVHALERAGVKNLYDLSQMNFYQLQRIRNLGASSLEKVINRIHSYGILLKNES | -0.902
HMYIEKTAYINDTAVNVRKSATTDSDVIKVLALNTEITIIGEENDWYKVKSGNDIGYIAKRLVSDQKKE | -0.187
HMYIKYETVLQNITERIAALRKNGTLVLDGERTLAAEFDASRGTIRKAMRQLEENGTILREGYVTRILPE | -1.95
HMYIVVPDLSKKDINEVANILAAQSLRFQVIDSANFRSDFPKNAVISQKPLAGSEVKVNKKIYLQLNPS | -0.43
HMYLEARVKSTTPILSKPNELGKSLGKLYTNDFVALVSLHKNGLDSYYRTANGGYINAADVVIDRDV | -1.49
HMYLPLREVVFNALRTAIIHGEFKPGERLMEMHLAKSLGVSRTPVREAMRMLELEGLVVMIPKKGAEVAR | -2.93
HMYMKMNDRIRSRRKELKMTQSVLAKLVGVNRVTITGWESGDYKPGGENLQALAAALEKTPQWLLDGKD | -2.82
HMYMTTADADMWKYVNTGRYNNDIQLMEEYKNRSMDSFEVITPEQQRKYNKAAMNLNSYYAWADPSYKPNP | -0.483
HMYMWQVEDLLRANELDIENIKKTIIDHYQLDDAQKSELTRWYEDLINMMRLEGVTKEGHLQINK | -2.02

Sequence | soluble fraction (log2)
HMYNSYALTARELELVNYVLKGNSRREMAEDSGLKENTVASYMKRLYRKIKVHSRKELKELFM | -0.151
HMYPDNEQTLSKLAFEFFKKRNIPISQSNINQIVTKSLGDRENLYNELLKIENFSTSGKKLTDNVIKKLIN | -0.0858
HMYPFSEETLKEKIREYLKTNRSINRRVLEREFYIRKQTALNWLNRLVDSGFLIKEGVRNSPVYFLAE | -0.884
HMYPMQNYSTIIGVIELRQQSVGYATTQKRYGIGSSTVTLIMKRFKELGLTLEELRAMPPKAVEVAFYPPE | -1.69
HMYPNEFPRKVMSVFESSGLEMFRTIEMLLAIPEYETPLPYGSGVSRSDIFVLAKSAGNLVSITV | -0.117
HMYQFFVDPGQIQGKRVTITGSDVNHIKNVLRMRIGEEIAVSNGKDGLEYRFGIDEILEDEVIGTLRFVKE | -1.61
HMYRIGELAKLADVTPDTIRYYEKQQMMDHDVRTEGGFRLYSDNDLQRLKFIRYARQLGFTLEAIRELLSI | -2.27
HMYRWSEEIFEKLRSDIMAALDLSREQNDEEIYRFIETEVEEYSQNNLLTLKEREQLEHLLFNSL | -1.44
HMYSKVSFTVSVGMTSERVSASLKALGIIDDSAKFNRYLVSNGYSTRIKVGTVELQAGQSYAEIASKLV | -3.88
HMYSLSELERIKNFLTGYMSDYSIMMLDANEITNQVDISLKDYSDDNIESIKAAVLSHGGKTDYLNFIDDS | -0.926
HMYSQEEKRYMEIMEIKPQELSAENLKKQYKKLVKKYHPDLHQDDKQAAEEKFKQLTNAYQVLMRRF | -0.474
HMYSSASKEEIDQLMKRLILNLDAKGYFWPQDKEKSLKLYLHNLFSKLPLNSSDIRFLHGLIRALSEE | -1.3
HMYSSIIGIAFTRAENKPAAPTGGSYSNPHPVDGNWKAAPYDGDGNLWYSIRHFNENVDIQDREWSDPTLG | -0.238
HMYSYSGSVINTYKVPVSVVLKDANGSAIASWDLPVDQSLGISAKDIATSSGTIEITGDGVNETKTVTFTK | -0.12
HMYTGSEGMAGLEGRAVTEVGPEAGTVLVKGEYWQARSDEPIATDRKIRVIRLEGLRLRVAEIHPEG | -0.45
HMYTPDYLSDLMVRMAHHSTAIEGNTLTQGETKSVLVDGYIPRAMDMRELNEVLNYKAFMTFLVE | -0.0939
HMYTTHTQSELNEAARFNGRATYQKGIYYNESKKEHFKVVNGKYQALPNVKQVNGDSWIDKTGITHKG | -0.324
HMYTVQQLARLAGITPRTLRHYDAIGLLKPTRVGENGYRYYGSEALLRLQSILLYRELDMPLEDIRRVLDS | -3.5
HMYVPEVPVPDLLGRSEEEAKNLIEDLGLVFKVSKREYSKEYDEGHVMEQSVDEGAKVKENYPVEVVISR | 0.181
HMYYDDEELDDYRGKASDAYTAAEVEQFEEVLTTMRPEEVHGWLRSLQLRGVALPDALKDEAYMIVSEQAE | -0.0106
HMYYIITNGKYWVIENPIRPGEYMESTKSSNAKQFTFKQAKNLLNARSKKLGWIRNGYSMVGED | -2.46
